Laboratory results taken from patent publication US20240141039A1 (AGENUS, published 2024).

T1: full-length isoform 2 ECD of human CD96 with a C89S mutation (His-tagged) (human, UniProt P40200 22-519)
T1 construct: also called His-tagged isoform 2 of human CD96 with a C89S mutation; human CD96 extracellular domain isoform 2 C89S
T1 sequence: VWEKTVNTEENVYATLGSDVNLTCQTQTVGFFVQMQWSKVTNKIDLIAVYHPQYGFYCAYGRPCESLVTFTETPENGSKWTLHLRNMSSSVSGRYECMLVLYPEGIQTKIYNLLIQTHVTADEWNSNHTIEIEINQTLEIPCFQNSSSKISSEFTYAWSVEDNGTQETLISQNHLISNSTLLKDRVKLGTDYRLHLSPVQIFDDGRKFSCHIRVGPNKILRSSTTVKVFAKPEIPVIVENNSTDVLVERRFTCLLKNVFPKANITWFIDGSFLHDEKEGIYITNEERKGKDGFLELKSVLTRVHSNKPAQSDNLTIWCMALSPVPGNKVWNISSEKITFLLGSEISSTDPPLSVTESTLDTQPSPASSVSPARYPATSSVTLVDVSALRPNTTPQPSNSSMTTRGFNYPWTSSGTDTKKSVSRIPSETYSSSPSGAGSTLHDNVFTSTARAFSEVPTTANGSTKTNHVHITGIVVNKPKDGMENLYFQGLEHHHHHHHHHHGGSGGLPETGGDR

T2: wild type full-length human CD96 isoform 2 expressed on CHO cells (human, UniProt P40200-2 22-569)
T2 construct: whole, on cells; also called human CD96-CHO (isoform 2); human CD96 (iso2) CHO cells
T2 sequence (looked up): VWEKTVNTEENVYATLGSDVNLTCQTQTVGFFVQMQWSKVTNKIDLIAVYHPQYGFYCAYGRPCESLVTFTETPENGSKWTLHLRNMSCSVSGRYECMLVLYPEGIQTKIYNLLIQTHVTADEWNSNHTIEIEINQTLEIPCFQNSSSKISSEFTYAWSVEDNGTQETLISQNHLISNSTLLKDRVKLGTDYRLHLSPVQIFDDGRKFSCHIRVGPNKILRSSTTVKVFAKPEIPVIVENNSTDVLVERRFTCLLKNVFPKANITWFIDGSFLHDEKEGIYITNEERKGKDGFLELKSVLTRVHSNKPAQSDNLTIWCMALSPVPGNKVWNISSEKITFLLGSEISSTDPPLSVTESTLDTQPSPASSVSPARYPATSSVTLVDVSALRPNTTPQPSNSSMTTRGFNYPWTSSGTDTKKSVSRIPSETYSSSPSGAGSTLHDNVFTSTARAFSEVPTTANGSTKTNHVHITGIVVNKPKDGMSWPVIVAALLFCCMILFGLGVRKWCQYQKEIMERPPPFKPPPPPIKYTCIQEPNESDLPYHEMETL


How the values were obtained:
[1] = target: T1, full-length isoform 2 ECD of human CD96 …; test: SPR Biacore T200, Protein A capture, 1:1 model, experiment #2
Protocol: Briefly, surface plasmon resonance experiments were performed using a Biacore T200 instrument, and the association rate (kₐ), dissociation rate (kd), and dissociation constant (KD) were calculated from each experiment using a 1:1 binding model with Biacore T200 Evaluation Software.
Multispecific molecules were captured using a 30-sec injection at a flow rate of 10 μl/min to reach about 350 resonance units (RUs). […] The sensor chip was regenerated between cycles with two 30-sec injections of 10 mM glycine, pH 1.5. Sensorgrams were evaluated and fit to a simple Langmuir 1:1 interaction model using the global data analysis option of BIAevaluation 3.0 software. Data quality was verified by visually inspecting deviations and curve fitting, and by evaluating the parameters of Rₘₐₓ, Chi2, and Tc.

[2] = target: T2, wild type full-length human CD96 …; test: flow cytometry, human CD96 (isoform 2) CHO cells, geomean of 2 experiments
Protocol: (§1) For the antibody binding assay, a frozen aliquot of human CD96-CHO cells (isoform 1 or isoform 2) was thawed at 37° C. and then transferred to a tube containing DPBS supplemented with 0.5% Bovine Serum Albumin and 0.05% Sodium Azide (FACS Buffer). Cells were centrifuged at 300 g for five minutes. The supernatant was discarded, and cells resuspended in FACS buffer were seeded in a 96-well U-bottom tissue culture plate at a density of 2×10⁵ cells per well in 50 μL. In a separate microplate, a 2× concentrated intermediate stock of each antibody was prepared. Antibodies were serially diluted 1-to-3 in FACS buffer. A total of 11 working dilutions ranging from 60 μg/mL to 0.001 μg/mL were prepared. Fifty microlitres of each dilution were then transferred to the microplate containing human CD96-CHO cells. The cells were then incubated for 45 minutes at 4° C. […] After a 30-minute incubation on ice, the cells were washed twice with cold FACS Buffer, and the cells were analyzed by flow cytometry (BD LSR Fortessa Flow Cytometer). The data were analyzed using the FlowJo software by sequentially gating the FSC-A vs. SSC-A, and SSC-H vs. SSC-A. Mean fluorescence intensity (MFI) values for PE were calculated, and the data were plotted by GraphPad Prism software.

[3] = target: T3, full-length human FcγRIIIa variant V/V expressed on CHO cells (human, UniProt P08637 17-254); test: flow cytometry on CHO cells expressing human FcγRIIIa variant V/V, PE anti-human IgG Fc detection
T3 construct: whole, on cells; also called human FcγRIIIa-CHO (variant V/V); human FcγRIIIa (V/V) CHO cells
Protocol: The ability of anti-TIGIT×CD96 multispecific molecules to bind to variant V/V or variant F/F of human FcγRIIIa expressed on the surface of CHO cells was assessed. Briefly, CHO cells were transfected with a vector encoding full-length human FcγRIIIa (human FcγRIIIa-CHO) variant V/V or F/F, and clones stably expressing FcγRIIIa (variant V/V or variant F/F) were selected.
as §1, with “human FcγRIIIa-CHO (variant V/V or variant F/F)” for “human CD96-CHO”, “cells” for “cells (isoform 1 or isoform 2)”, “each multispecific molecule” for “each antibody”, “prepared.” for “prepared. Antibodies were serially diluted 1-to-3 in FACS buffer. A total of 11 working dilutions ranging from 60 μg/mL to 0.001 μg/mL were prepared. Fifty microlitres of each dilution were then transferred to the microplate containing human CD96-CHO cells. The cells were then incubated for 45 minutes at 4° C.”

T3 sequence (P08637 other isoform, or with tags, fused parts or gaps mutant limits assumed): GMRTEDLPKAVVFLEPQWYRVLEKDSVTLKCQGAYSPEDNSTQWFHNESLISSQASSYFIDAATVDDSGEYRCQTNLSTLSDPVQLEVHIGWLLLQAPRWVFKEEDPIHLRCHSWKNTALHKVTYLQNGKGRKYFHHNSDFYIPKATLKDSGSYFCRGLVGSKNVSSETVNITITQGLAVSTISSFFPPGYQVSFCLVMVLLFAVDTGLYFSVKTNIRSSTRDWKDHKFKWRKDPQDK

Kd [1] [nM] | koff [1] [s⁻¹] | kon [1] [M⁻¹ s⁻¹] | EC50 [2] [µg/mL] | EC50 (read off the curve) [3] [µg/mL] | Binder
85 | 0.00083 | 9760 | 0.196 | ~0.3 | anti-TIGIT×CD96 multispecific molecule BA123 (bispecific antibody, human IgG1, kappa, lambda, copies: 1 + 1 + 1 + 1) heavy 1: QVQLVQSGAEVKKPGASVKVSCKASGYTFTSYGISWVRQAPGQGLEWMGWISAYNANTNYAQKLQGRVTMTTDTSTSTAYMELRSLRSDDTAVYYCARSAGVLGGMDVWGRGTLVTVSSASTKGPSVFPLAPSSKSTSGGTAALGCLVKDYFPEPVTVSWNSGALTSGVHTFPAVLQSSGLYSLSSVVTVPSSSLGTQTYICNVNHKPSNTKVDKRVEPKSCDKTHTCPPCPAPELLGGPDVFLFPPKPKDTLMISRTPEVTCVVVDVSHEDPEVKFNWYVDGVEVHNAKTKPREEQYNSTYRVVSVLTVLHQDWLNGKEYKCKVSNKALPAPIEKTISKAKGQPREPQVYTLPPSREEMTKNQVSLSCAVKGFYPSDIAVEWESNGQPENNYKTTPPVLDSDGSFFLVSKLTVDKSRWQQGNVFSCSVMHEALHNHYTQKSLSLSPG light 1: not shown heavy 2: EVQLVQSGAEVKKPGSSVKVSCKASGYTFASYGISWVRQAPGQGLEWMGGITPFFNRVDVAEKFQGRVTITADKSTSTAYIELSSLRSEDTAVYYCARDLRRGGVGDAFDIWGRGTLVTVSSASTKGPSVFPLAPSSKSTSGGTAALGCLVKDYFPEPVTVSWNSGALTSGVHTFPAVLQSSGLYSLSSVVTVPSSSLGTQTYICNVNHKPSNTKVDKRVEPKSCDKTHTCPPCPAPELLGGPDVFLFPPKPKDTLMISRTPEVTCVVVDVSHEDPEVKFNWYVDGVEVHNAKTKPREEQYNSTYRVVSVLTVLHQDWLNGKEYKCKVSNKALPLPEEKTISKAKGQPREPQVYTLPPSREEMTKNQVSLWCLVKGFYPSDIAVEWESNGQPENNYKTTPPVLDSDGSFFLYSKLTVDKSRWQQGNVFSCSVMHEALHNHYTQKSLSLSPG light 2: QSALTQPRSVSGSPGQSVTISCTGTSPDVGSHAYRSWYQQHPGKAPKLMIYEVSYRPSGVSNRFSGSKSGNTASLTISGLQAEDEADYYCSSYPPSSATVFGAGTKLTVLGQPKAAPSVTLFPPSSEELQANKATLVCLISDFYPGAVTVAWKADSSPVKAGVETTTPSKQSNNKYAASSYLSLTPEQWKSHRSYSCQVTHEGSTVEKTVAPTEC
19.7 | 0.000796 | 40500 | 0.0951 | ~0.2 | anti-TIGIT×CD96 multispecific molecule BA127 (bispecific antibody, human IgG1, kappa, lambda, Anti-CD96 arm = BA139, anti-TIGIT arm = BA150; copies: 1 + 1 + 1 + 1) heavy 1: QVQLVQSGAEVKKPGASVKVSCKASGYTFTTYALHWVRQAPGQRLEWMGWINTGSGDTKYSQKFQGRVTITRDTSASTAYMELSSLRSEDTAVYYCARSLGVYYGMDVWGQGTLVTVSSASTKGPSVFPLAPSSKSTSGGTAALGCLVKDYFPEPVTVSWNSGALTSGVHTFPAVLQSSGLYSLSSVVTVPSSSLGTQTYICNVNHKPSNTKVDKRVEPKSCDKTHTCPPCPAPELLGGPDVFLFPPKPKDTLMISRTPEVTCVVVDVSHEDPEVKFNWYVDGVEVHNAKTKPREEQYNSTYRVVSVLTVLHQDWLNGKEYKCKVSNKALPAPIEKTISKAKGQPREPQVYTLPPSREEMTKNQVSLSCAVKGFYPSDIAVEWESNGQPENNYKTTPPVLDSDGSFFLVSKLTVDKSRWQQGNVFSCSVMHEALHNHYTQKSLSLSPG light 1: not shown heavy 2: EVQLVQSGAEVKKPGSSVKVSCKASGYTFASYGISWVRQAPGQGLEWMGGITPFFNRVDVAEKFQGRVTITADKSTSTAYIELSSLRSEDTAVYYCARDLRRGGVGDAFDIWGRGTLVTVSSASTKGPSVFPLAPSSKSTSGGTAALGCLVKDYFPEPVTVSWNSGALTSGVHTFPAVLQSSGLYSLSSVVTVPSSSLGTQTYICNVNHKPSNTKVDKRVEPKSCDKTHTCPPCPAPELLGGPDVFLFPPKPKDTLMISRTPEVTCVVVDVSHEDPEVKFNWYVDGVEVHNAKTKPREEQYNSTYRVVSVLTVLHQDWLNGKEYKCKVSNKALPLPEEKTISKAKGQPREPQVYTLPPSREEMTKNQVSLWCLVKGFYPSDIAVEWESNGQPENNYKTTPPVLDSDGSFFLYSKLTVDKSRWQQGNVFSCSVMHEALHNHYTQKSLSLSPG light 2: QSALTQPRSVSGSPGQSVTISCTGTSPDVGSHAYRSWYQQHPGKAPKLMIYEVSYRPSGVSNRFSGSKSGNTASLTISGLQAEDEADYYCSSYPPSSATVFGAGTKLTVLGQPKAAPSVTLFPPSSEELQANKATLVCLISDFYPGAVTVAWKADSSPVKAGVETTTPSKQSNNKYAASSYLSLTPEQWKSHRSYSCQVTHEGSTVEKTVAPTEC
